Experiments:
S. cerevisiae 334 [1] = assay: Human elongase HSELO1 activity in yeast; assay type: cell-based, Saccharomyces cerevisiae
Method: The construct pRAE-58-A1 was transformed into S. cerevisiae 334 (Hoveland et al., supra) and screened for elongase activity. The negative control strain was S. cerevisiae 334 containing pYX242 vector. The cultures were grown for 24 hours at 30° C., in selective media (Ausubel et al., supra), in the presence of 25 μM of GLA or AA. In this study, DGLA or adrenic acid (ADA, 22:4n-6), respectively, was the predicted product of human elongase activity. […] Thus, the human elongase converts both 18 and 20 carbon chain long PUFAs to their respective elongated fatty acids.
To further confirm the substrate specificity of the human elongation enzyme, described above and referred to herein as HSELO1, the recombinant yeast strain 334(pRAE-58-A1) was grown in minimal media containing n-6 fatty acids GLA, AA, or n-3 fatty acids ALA, STA, or EPA. […] The levels of these fatty acids were 7.29% (DGLA), 6.26% (ADA), 6.15% (ETrA), 10.06% (ETA), and 6.66% (DPA), respectively, of the total fatty acids in the strain containing the pRAE-58-A1 sequence.
To confirm this hypothesis, 25 μM of exogenous OA was added as a substrate to the recombinant yeast strain 334(pRAE-58-A1).
To determine whether the substrate concentration affects the conversion of 18 and 20 carbon fatty acids to the respective elongated products, two different concentrations of GLA, AA, and EPA were examined (FIG. 52).
Although the addition of more substrates led to higher percentages of the two carbon elongated products, the overall conversion rate decreased by at least 35%.
To further confirm the substrate specificity of HSELO1p, the recombinant yeast strain 334(pRAE-58-A1) was grown in minimal media containing 25 μM of saturated, monounsaturated, or PUFAs. […] However, this is not an increase in the level of OA compared to the samples where PTA was not added, as OA was 25-31% of the total fatty acids in all samples. […] The levels of these fatty acids were 0.74% (C20:2n-6), 2.46% (DGLA), and 2.14% (ADA), respectively, of the total fatty acids in the lysates of 334(pRAE-58-A1). […] HSELO1p is also involved in the elongation of n-3 PUFAs ALA, STA, and EPA, but not DPA (FIG. 53C). […] The levels of these fatty acids were 1.03% ETrA, 2.24% (ETA), and 3.19% (DPA), respectively, of the total fatty acids in the strain containing the pRAE-58-A1 sequence.

S. cerevisiae 334 [2] = assay: Mouse elongase MELO4 activity in yeast; assay type: cell-based, Saccharomyces cerevisiae
Method: The construct pRAE-84 was transformed into S. cerevisiae 334 (Hoveland et al., supra) and screened for elongase activity. The negative control strain was S. cerevisiae 334 containing pYX242 vector. The cultures were grown for 42-48 hours at 30° C., in selective media (Ausubel et al., supra), in the presence of 25 μM of GLA, AA, ADA, STA, EPA, or DPA. […] However, there were accumulations of ADA, ω6-tetracosatetraenoic acid (TTA, C24:4n-6), ETA, DPA, and ω3-tetracosapentaenoic acid (TPA, C24:5n-3), respectively (FIG. 56). The n-6 fatty acid substrate AA was converted to ADA, which was subsequently converted to TTA, and the n-3 fatty acid EPA was converted to DPA, which was subsequently converted to TPA. The levels of these fatty acids were 0.64% (ADA), 1.07% (TTA), 1.47% (DPA), and 7.06% (TPA), respectively, of the total fatty acids in the strain containing the pRAE-84 sequence. […] The expression of MELO4 in yeast results in the conversion of C20 and C22 fatty acids to the respective elongated products. The conversion rate of C22 to C24 fatty acids is much greater when the exogenously added substrate is […].
To further confirm the substrate specificity of MELO4 protein (MELO4), the recombinant yeast strain 334(pRAE-84) was grown in minimal media containing 25 μM of saturated, monounsaturated, or polyunsaturated fatty acids. […] When AA was added exogenously, the levels of product fatty acids were 0.5% (ADA) and 0.39% (TTA), and when ADA was added exogenously, the level of product fatty acid was 1.3% (TTA) of the total fatty acids in the strain containing the pRAE-84 sequence. […] MELO4p is also involved in the elongation of GLA to DGLA. The lipid profile of the strain containing the pRAE-84 sequence, in presence of GLA, had 0.43% of DGLA, which represented 14.7% conversion of GLA to DGLA. MELO4p is also involved in the elongation of n-3 PUFAs EPA and DPA (FIG. 53C). […] When EPA was added, the levels of these fatty acids were 1.21% (DPA) and 3.38% (TPA), and when DPA was added, the level of the product fatty acid was 3.09% (TPA) of the total fatty acids in the strain containing the pRAE-84 sequence. […] MELO4p is also involved in the elongation of STA to C22:4n-3. When STA was added, the levels of fatty acids produced by two-carbon elongation were 0.3% ETA and 0.23% C22:4n-3. […] MELO4p also appeared to be involved in the elongation of ALA; however, the small amount of the fatty acid produced by two-carbon elongation (0.16% of ETrA) may not be significant.

[3] = 25 μM AA added exogenously, FIG. 57B
[4] = 25 μM ADA added exogenously, FIG. 57B
[5] = 25 μM DPA added, second experiment
[6] = 25 μM EPA added, second experiment
[7] = C22 substrate ADA added, 25 μM, FIG. 56
[8] = C22 substrate printed as EPA, 25 μM, FIG. 56

B1: HSELO1: human elongase from liver cDNA (SEQ ID NO:3), expressed in yeast from pRAE-58-A1 (protein, listed as Homo sapiens)
chain: MEHFDASLSTYFKALLGPRDTRVKGWFLLDNYIPTFICSVIYLLIVWLGPKYMRNKQPFSCRGILVVYNLGLTLLSLYMFCELVTGVWEGKYNFFCQGTRTAGESDMKIIRVLWWYYFSKLIEFMDTFFFILRKNNHQITVLHVYHHASMLNIWWFVMNWVPCGHSYFGATLNSFIHVLMYSYYGLSSVPSMRPYLWWKKYITQGQLLQFVLTIIQTSCGVIWPCTFPLGWLYFQIGYIISLIALFTNFYIQTYNKKGASRRKDHLKDHQNGSVAAVNGHTNSFSPLENNVKPRKLRKD
S. cerevisiae 334 [1]; 25 μM AA, 24 hours at 30° C., FIG. 45
  level of ADA, of total fatty acids: 1.21%
S. cerevisiae 334 [1]; 25 μM AA, FIG. 52
  conversion of AA to ADA: 27.5%
  level of ADA, of the total fatty acids: 2.91%
S. cerevisiae 334 [1]; 25 μM AA, FIG. 53B
  conversion of AA to ADA: 27.1%
  level of ADA, of the total fatty acids: 2.14%
S. cerevisiae 334 [1]; 25 μM ALA, FIG. 53C
  conversion of ALA to ETrA: 22.2%
  level of ETrA, of the total fatty acids: 1.03%
S. cerevisiae 334 [1]; 25 μM EPA, FIG. 52
  conversion of EPA to DPA: 70.3%
  level of DPA, of the total fatty acids: 4.82%
S. cerevisiae 334 [1]; 25 μM EPA, FIG. 53C
  conversion of EPA to DPA: 39.5%
  level of DPA, of the total fatty acids: 3.19%
S. cerevisiae 334 [1]; 25 μM GLA, 24 hours at 30° C., FIG. 45
  level of DGLA, of total fatty acids: 2.75%
S. cerevisiae 334 [1]; 25 μM GLA, FIG. 52
  conversion of GLA to DGLA: 62.4%
  level of DGLA, of the total fatty acids: 3.95%
S. cerevisiae 334 [1]; 25 μM GLA, FIG. 53B
  conversion of GLA to DGLA: 51.4%
  level of DGLA, of the total fatty acids: 2.46%
S. cerevisiae 334 [1]; 25 μM LA, FIG. 53B
  conversion of LA to C20:2n-6: 13.2%
  level of C20:2n-6, of the total fatty acids: 0.74%
S. cerevisiae 334 [1]; 25 μM STA, FIG. 53C
  conversion of STA to ETA: 61.9%
  level of ETA, of the total fatty acids: 2.24%
S. cerevisiae 334 [1]; 25 μM of exogenous OA
  conversion of OA to EA: 8.9%
S. cerevisiae 334 [1]; 25 μM of exogenous OA, FIG. 51
  accumulation of EA, of the total fatty acids: 2.25%
S. cerevisiae 334 [1]; 25 μM substrate
  elongation of monounsaturated fatty acids OA and EA: also not involved
S. cerevisiae 334 [1]; 25 μM substrate, FIG. 53A
  elongation of saturated fatty acids PA, SA, ARA, BA: not involved
S. cerevisiae 334 [1]; 25 μM substrate, FIG. 53B
  elongation of n-6 PUFAs DGLA or ADA: but not DGLA or ADA
S. cerevisiae 334 [1]; 25 μM substrate, FIG. 53C
  elongation of n-3 PUFA DPA: but not DPA
S. cerevisiae 334 [1]; 100 μM AA, FIG. 52
  conversion of AA to ADA: 15.7%
  level of ADA, of the total fatty acids: 3.90%
S. cerevisiae 334 [1]; 100 μM EPA, FIG. 52
  conversion of EPA to DPA: 45.7%
  level of DPA, of the total fatty acids: 11.50%
S. cerevisiae 334 [1]; 100 μM GLA, FIG. 52
  conversion of GLA to DGLA: 39.8%
  level of DGLA, of the total fatty acids: 9.56%
S. cerevisiae 334 [1]; 100 μM versus 25 μM of substrates GLA, AA, EPA
  decrease of overall conversion rate: at least 35%
S. cerevisiae 334 [1]; PTA added as a substrate, not an increase, OA was 25-31% in all samples
  OA, of the total fatty acids: 12.76%
S. cerevisiae 334 [1]; endogenous substrate
  endogenous conversion of C16:1n-7 to C18:1n-7: 20.4%
  endogenous conversion of C18:1n-7 to C20:1n-7: 58.1%
S. cerevisiae 334 [1]; substrate AA, FIG. 51
  conversion of AA to ADA: 42.7%
  level of ADA, of the total fatty acids: 6.26%
S. cerevisiae 334 [1]; substrate ALA, FIG. 51
  conversion of ALA to ETrA: 30.4%
  level of ETrA, of the total fatty acids: 6.15%
S. cerevisiae 334 [1]; substrate EPA, FIG. 51
  conversion of EPA to DPA: 71.7%
  level of DPA, of the total fatty acids: 6.66%
S. cerevisiae 334 [1]; substrate GLA, FIG. 51
  conversion of GLA to DGLA: 78.3%
  level of DGLA, of the total fatty acids: 7.29%
S. cerevisiae 334 [1]; substrate STA, FIG. 51
  conversion of STA to ETA: 79.2%
  level of ETA, of the total fatty acids: 10.06%

B2: MELO4: mouse PUFA elongation enzyme from brain cDNA (SEQ ID NO:5), expressed in yeast from pRAE-84 (protein, listed as Mus musculus)
chain: MEQLKAFDNEVNAFLDNMFGPRDSRVRGWFLLDSYLPTFILTITYLLSIWLGNKYMKNRPALSLRGILTLYNLAITLLSAYMLVELILSSWEGGYNLQCQNLDSAGEGDVRVAKVLWWYYFSKLVEFLDTIFFVLRKKTNQITFLHVYHHASMFNIWWCVLNWIPCGQSFFGPTLNSFIHILMYSYYGLSVFPSMHKYLWWKKYLTQAQLVQFVLTITHTLSAVVKPCGFPFGCLIFQSSYMMTLVILFLNFYIQTYRKKPVKKELQEKEVKNGFPKAHLIVANGMTDKKAQ
S. cerevisiae 334 [2]; [3]
  conversion of AA to ADA: 8.7%
  conversion of ADA to TTA: 43.8%
  level of ADA, of the total fatty acids: 0.5%
  level of TTA, of the total fatty acids: 0.39%
S. cerevisiae 334 [2]; 25 μM AA added, FIG. 56
  conversion of AA to ADA: 10.4%
  conversion of ADA to TTA: 62.6%
  level of ADA, of the total fatty acids: 0.64%
  level of TTA, of the total fatty acids: 1.07%
S. cerevisiae 334 [2]; [4]
  conversion of ADA to TTA: 7.3%
  level of TTA, of the total fatty acids: 1.3%
S. cerevisiae 334 [2]; 25 μM ALA, may not be significant
  level of ETrA: 0.16%
S. cerevisiae 334 [2]; [5]
  conversion of DPA to TPA: 46.4%
  level of TPA, of the total fatty acids: 3.09%
S. cerevisiae 334 [2]; 25 μM EPA added, FIG. 56
  conversion of DPA to TPA: 82.8%
  conversion of EPA to DPA: 32.7%
  level of DPA, of the total fatty acids: 1.47%
  level of TPA, of the total fatty acids: 7.06%
S. cerevisiae 334 [2]; [6]
  conversion of DPA to TPA: 73.6%
  conversion of EPA to DPA: 24.0%
  level of DPA, of the total fatty acids: 1.21%
  level of TPA, of the total fatty acids: 3.38%
S. cerevisiae 334 [2]; 25 μM GLA, 42-48 hours at 30° C., FIG. 56
  elongation of GLA to DGLA: GLA was not elongated
S. cerevisiae 334 [2]; 25 μM GLA, FIG. 57B
  conversion of GLA to DGLA: 14.7%
  level of DGLA in lipid profile: 0.43%
S. cerevisiae 334 [2]; 25 μM STA added
  conversion of ETA to C22:4n-3: 43.4%
  conversion of STA to ETA: 11.1%
  level of C22:4n-3: 0.23%
  level of ETA: 0.3%
S. cerevisiae 334 [2]; 25 μM substrate
  elongation of monounsaturated fatty acids PTA, OA, or EA: also not involved
S. cerevisiae 334 [2]; 25 μM substrate, FIG. 57A
  elongation of saturated fatty acids PA, SA, ARA, or BA: not involved
S. cerevisiae 334 [2]; [7]
  conversion of ADA to TTA: 9.2%
  level of TTA, of the total fatty acids: 2.4%
S. cerevisiae 334 [2]; [8]
  conversion of C22 substrate to TPA: 43.9%
  level of TPA, of the total fatty acids: 3.82%

Source: US7968692B2, “Elongase genes and uses thereof” (Abbott Laboratories, priority 1998, dated 2011)
